Laboratory results from patent publication US20260193638A1 (ROCHE DIAGNOSTICS OPERATIONS, published 2026).

B1: Thermus thermophilus SlyD-FKBP clone C10B9 (designed binder)
chain: MRSKVGQDKVVTIRYTLQVEGEVLDQGELSYLHGHRNLIPGLEEALEGREEGEAFQAHVPAEKAYGAGSYYVLITDNLVYFGGSSGKDLDFQVEVVKVREATPEELLHGHGGAAAGLNDIFEAQKIEWHEGSRKHHHHHHHH
notes: also called C10B9 mutant
B2: Thermus thermophilus SlyD-FKBP TT10F7 (designed binder)
chain: MRSKVGQDKVVTIRYTLQVEGEVLDQGELSYLHGHRNLIPGLEEALEGREEGEAFQAHVPAEKAYGAGSWKPHFNLHLLYLIGSSGKDLDFQVEVVKVREATPEELLHGHAHGGAAAGLNDIFEAQKIEWHEGSRKHHHHHHHH
notes: captured on the sensor directly from E. coli lysate; also called TT10F7 mutant; TT10F7 T.t.SlyD-FKBP12

Tests used:
[1] = molecular target: T1, human recombinant TNFα (fully intact trimeric TNFα) (human, UniProt P01375 77-233); assay: SPR, C10B9 captured via anti-SlyD antibody, TNFα in solution
T1 construct: also called hrTNFα
T1 sequence (P01375 77-233 limits assumed): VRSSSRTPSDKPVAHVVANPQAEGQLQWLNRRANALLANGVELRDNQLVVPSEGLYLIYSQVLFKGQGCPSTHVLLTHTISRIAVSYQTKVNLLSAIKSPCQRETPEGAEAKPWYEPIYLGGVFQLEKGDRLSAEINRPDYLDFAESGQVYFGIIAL
Protocol: (§1) The samples were diluted in the instrument's buffer. In another embodiment the buffer was HBS-E buffer (10 mM HEPES pH 7.4, 150 mM NaCl, 3 mM EDTA) and the samples were diluted in the detergent-free buffer. The system operated at 25° C. 10000 RU GAR-Fcγ (relative units of Fcγ-fragment binding, polyclonal goat anti-Rabbit IgG/Jackson Laboratories) were immobilized according to the manufacturer's instructions using EDC/NHS chemistry on all 4 flow cells. The sensor is finally deactivated using 1M ethanolamine. […] A monoclonal rabbit anti-Thermus thermophilus SlyD core protein (0612pS3A8) binding antibody, was captured in all flow cells by a 6 min injection at 5 μl/min. […] Flow cell 1 served as a reference. […] The Thermus thermophilus SlyD-FKBP clones were specifically captured on the sensor by a 2 min injection at 30 μl/min directly from a 1:25 diluted 10000 g-centrifuged E. coli lysate supernatant.
(§2) The flow rate was set to 100 μl/min. […] The dissociation was monitored for 5 minutes.

[2] = molecular target: Streptavidin (11897000, Roche) (UniProt P22629 37-163, limits assumed); assay: SPR, TT10F7 captured via anti-SlyD antibody, streptavidin in solution
Sequence of Streptavidin (11897000, Roche) (P22629 37-163 limits assumed): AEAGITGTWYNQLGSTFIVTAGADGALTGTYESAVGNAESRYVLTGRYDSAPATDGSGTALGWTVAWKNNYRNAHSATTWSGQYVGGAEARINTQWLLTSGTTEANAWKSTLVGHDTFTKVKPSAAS
Protocol: as §1, §2

[3] = molecular target: T1, human recombinant TNFα (fully intact …); assay: SPR, TT10F7 captured, TNFα (52 kDa trimer) in solution, - TWEEN 20
Protocol: as §1, §2

[4] = molecular target: T1, human recombinant TNFα (fully intact …); assay: SPR BIACORE 3000, TT10F7 captured via anti-SlyD antibody, trimeric TNFα as analyte
Protocol: as §1, with “A CM5 series sensor was mounted into the system and was normalized in HBS-ET buffer (10 mM HEPES pH 7.4, 150 mM NaCl, 3 mM EDTA, 0.005% w/v Tween 20) according to the manufacturer's instructions. The samples” for “The samples”
as §2

[5] = molecular target: T1, human recombinant TNFα (fully intact …); assay: SPR, TT10F7 captured, TNFα (52 kDa trimer) in solution, + TWEEN 20
Protocol: as §1, §2

Binder	binding result [1]	binding result [2]	Kd [3] [nM]	koff [3] [s⁻¹]	kon [3] [M⁻¹ s⁻¹]	stoichiometry [4]	Kd [5] [nM]	koff [5] [s⁻¹]	kon [5] [M⁻¹ s⁻¹]
B1	no binding (tested: 1 µM)								
B2		no binding (tested: 1 µM)	262	0.00103	3960	3 to 1	258	0.00268	10400
